# From article PMC12258035, “AcABI5a integrates abscisic acid signaling to developmentally modulate fruit ascorbic acid biosynthesis in kiwifruit”
# T1: AcABI5a-His (Actinidia chinensis? (cv. 'Donghong'), UniProt A0A2R6QW13 1-413)
# T1 sequence: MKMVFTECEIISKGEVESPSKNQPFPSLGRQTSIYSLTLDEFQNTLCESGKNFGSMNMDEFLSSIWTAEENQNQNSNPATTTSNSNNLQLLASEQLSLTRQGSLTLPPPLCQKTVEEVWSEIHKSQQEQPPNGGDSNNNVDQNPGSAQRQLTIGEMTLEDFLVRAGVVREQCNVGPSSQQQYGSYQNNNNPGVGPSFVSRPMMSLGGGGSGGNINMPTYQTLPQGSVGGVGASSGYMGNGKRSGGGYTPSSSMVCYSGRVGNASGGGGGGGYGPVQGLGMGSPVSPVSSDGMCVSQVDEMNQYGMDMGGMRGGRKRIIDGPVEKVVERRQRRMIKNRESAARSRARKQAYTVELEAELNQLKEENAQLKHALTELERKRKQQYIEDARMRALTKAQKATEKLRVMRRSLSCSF
# B1: AcABI5a promoter mutant probe (dsDNA)
# DNA 1: GCACCCTTGTAAAAAAAAAATTGTAAGA
# DNA 2: TCTTACAATTTTTTTTTTACAAGGGTGC
# B2: AcMYBS1 promoter G-box probe (dsDNA)
# DNA 1: ATATTTTGTTATACGTGTTAGAAGTTCA
# DNA 2: TGAACTTCTAACACGTATAACAAAATAT
# B3: AcMYBS1 mutant probe (dsDNA)
# DNA 1: ATATTTTGTTAAAAAAATTAGAAGTTCA
# DNA 2: TGAACTTCTAATTTTTTTAACAAAATAT
# B4: AcABI5a promoter G-box probe (dsDNA)
# DNA 1: GCACCCTTGTAGACGTGAAATTGTAAGA
# DNA 2: TCTTACAATTTCACGTCTACAAGGGTGC
# Experiments:
# AcABI5a-His [1] = biological target: T1, AcABI5a-His; test: EMSA; EMSA in polyacrylamide gels with FAM probes; buffer, salt, pH and temperature not stated (refers to Hou et al. [71]); conditions: protein: recombinant; tags: 6xHis at N- and C-terminus (pET-32a); fusion 65 kDa; chain copies: 2; label: FAM (on F strand); blunt
# AcABI5a-His [2] = biological target: T1, AcABI5a-His; test: EMSA; unlabeled competitor weakens the band; EMSA in polyacrylamide gels with FAM probes; buffer, salt, pH and temperature not stated (refers to Hou et al. [71]); conditions: protein: recombinant; tags: 6xHis at N- and C-terminus (pET-32a); fusion 65 kDa; chain copies: 2; label: FAM (on F strand); blunt
Binder,binding result (AcABI5a-His [1]),binding result (AcABI5a-His [2])
B1,no binding,–
B2,–,binds
B3,no binding,–
B4,–,binds
